The source of these data is patent US20240132603A1 (HARBOUR BIOMED US, published 2024).

In assay [1] the target is T1, human CCR8 (human, UniProt P51685 1-355).
T1 construct: whole, on cells; construct used for the overexpressing cell lines is not described; also called hCCR8
Nature of the assay: FACS, CHO-K1-hCCR8 cells. The protocol: (§1) Cells overexpressing human CCR8 were digested with pancreatin, counted and resuspended to a cell density of 1E6 cells/mL. The cell suspension was added to a 96-well V-bottom plate at 100 μL/well and centrifuged at 300 g for 5 min, and the supernatant was discarded. The anti-CCR8 antibodies provided herein was used as a primary antibody and diluted in a 5-fold gradient with an FACS buffer (DPBS containing 2% FBS) from 200 nM. The diluted primary antibody was added at 100 μL/well to resuspend the cells, and the mixture was incubated at 4° C. for 1 h. The plate was washed twice with DPBS and centrifuged at 300×g for 5 min, and the supernatant was discarded. The secondary antibody diluted in a 1:1000 ratio with an FACS buffer was added at 100 μL/well to suspend the cells, and the mixture was incubated at 4° C. for 40 min. The plate was washed twice with DPBS and centrifuged at 300×g for 5 min, and the supernatant was discarded. DPBS was added at 200 μL/well to suspend the cells, and the mixture was loaded on an FACS machine for analysis.

In a further assay the target is T2, cynomolgus monkey CCR8 (cynomolgus monkey, UniProt G7NYJ2 1-355).
T2 construct: whole, on cells; also called CynoCCR8
T2 sequence (G7NYJ2 entry or part of it): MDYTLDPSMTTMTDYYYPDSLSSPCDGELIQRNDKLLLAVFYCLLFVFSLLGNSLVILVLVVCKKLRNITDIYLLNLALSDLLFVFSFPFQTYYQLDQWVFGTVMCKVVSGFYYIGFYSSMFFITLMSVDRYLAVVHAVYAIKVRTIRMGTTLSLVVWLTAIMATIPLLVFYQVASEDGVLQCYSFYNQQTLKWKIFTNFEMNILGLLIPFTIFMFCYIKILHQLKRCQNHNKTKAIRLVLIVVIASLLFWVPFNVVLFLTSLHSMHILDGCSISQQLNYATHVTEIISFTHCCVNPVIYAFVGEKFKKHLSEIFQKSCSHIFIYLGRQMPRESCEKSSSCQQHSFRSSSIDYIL
Nature of the assay: FACS, CHO-K1-CynoCCR8 cells. As for the experimental part: as §1, with “cynomolgus monkey CCR8, CHO-K1-CynoCCR8,” for “human CCR8”
A general note: Flow cytometry measures light scatter and fluorescence of single cells or particles in a stream.

The target in assay [2] is T1, human CCR8. Nature of the assay: FACS, CHO-K1-hCCR8 cells. The protocol:
as §1
This is another data set of the same source.

Read-outs that look alike come from different tables or passages of the source.

T1 sequence (P51685 whole entry): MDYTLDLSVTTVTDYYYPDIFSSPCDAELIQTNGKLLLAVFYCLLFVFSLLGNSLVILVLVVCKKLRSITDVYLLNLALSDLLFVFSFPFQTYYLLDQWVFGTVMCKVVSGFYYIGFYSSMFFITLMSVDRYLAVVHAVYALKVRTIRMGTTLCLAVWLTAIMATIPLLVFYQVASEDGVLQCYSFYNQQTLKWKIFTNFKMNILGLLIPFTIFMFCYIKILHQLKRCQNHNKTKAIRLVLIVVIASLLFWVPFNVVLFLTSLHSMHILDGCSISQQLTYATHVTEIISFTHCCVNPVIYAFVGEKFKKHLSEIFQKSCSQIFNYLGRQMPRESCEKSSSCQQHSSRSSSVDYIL

B1: PR004521 (antibody, human IgG1, kappa, V domains shown)
VH: EVQLVESGGGLVQPGGSLKLSCAASGFTFNTYAMNWVRQASGKGLEWVGRIRSKSNNYATYYADSVKDRFTISRDDSKSTLYLQMNSLKTEDTAVYYCVRGKENGNYYAMDFWGQGTTVTVSS
VL: DIVMTQSPLSLPVTPGEPASISCRSSKSLLHSNGKIYLYWFLQKPGQSPQLLIYRMSNLASGVPDRFSGSGSGTDFTLKISRVEAEDVGVYYCMQHLEYPLTFGQGTKLEIKR
notes: humanized variant of PR004128, IgG1 with DE mutation
In the case of B1, the concentration for a half-maximal effect (EC50) (usually the concentration giving half of the maximal effect) stood at 0.37 nM with human CCR8 [1] and 6.22 nM with cynomolgus monkey CCR8.

B2: PR004665 (antibody, human IgG1, kappa, V domains shown)
VH: EVQLVESGGGLVKPGGSLRLSCAASGFTFSTYAMNWVRQAPGKGLEWVGRIRSKSNNYATYYADSVKDRFTISRDDSKSTLYLQMNSLKTEDTAVYYCVRGKEQGNYYAMDFWGQGTTVTVSS
VL: DIVMTQSPLSLPVTLGQPASISCRSSKSLLHSNGKIYLYWFQQRPGQSPRLLIYRMSNLASGVPDRFSGSGSGTDFTLKISRVEAEDVGVYYCMQHLEYPLTFGQGTKLEIKR
notes: PTM site-removed humanized variant of PR004128, IgG1 with DE mutation
B2: the EC50 in the assay with human CCR8 [2] was 0.341 nM.

B3: PR004524 (antibody, human IgG1, kappa, V domains shown)
VH: EVQLVESGGGLVQPGGSLKLSCAASGFTFNTYAMNWVRQASGKGLEWVGRIRSKSNNYATYYADSVKDRFTISRDDSKSTLYLQMNSLKTEDTAVYYCVRGKENGNYYAMDFWGQGTTVTVSS
VL: DIVMTQSPLSLPVTPGEPASISCRSSKSLLHSNGNTYLYWFLQKPGQSPQLLIYRMSNLASGVPDRFSGSGSGTDFTLKISRVEAEDVGVYYCMQHLEYPLTFGQGTKLEIKR
notes: as for B1
B3: the EC50 in the assay with human CCR8 [1] is 0.17 nM; in the assay with cynomolgus monkey CCR8, 4.79 nM.

B4: PR004663 (antibody, human IgG1, kappa, V domains shown)
VH: EVQLVESGGGLVQPGGSLRLSCAASGFTFSTYAMNWVRQAPGKGLEWVSRIRSKSNNYATYYADSVKDRFTISRDDSKSTLYLQMNSLRAEDTAVYYCVRGKEQGNYYAMDFWGQGTTVTVSS
VL: DIVMTQSPLSLPVTPGEPASISCRSSKSLLHSNAKIYLYWFLQKPGQSPQLLIYRMSNLASGVPDRFSGSGSGTDFTLKISRVEAEDVGVYYCMQHLEYPLTFGQGTKLEIKR
notes: as for B2
Molecule B4 gave an EC50 with human CCR8 [2] of 0.286 nM.

B5: PR004525 (antibody, human IgG1, kappa)
heavy: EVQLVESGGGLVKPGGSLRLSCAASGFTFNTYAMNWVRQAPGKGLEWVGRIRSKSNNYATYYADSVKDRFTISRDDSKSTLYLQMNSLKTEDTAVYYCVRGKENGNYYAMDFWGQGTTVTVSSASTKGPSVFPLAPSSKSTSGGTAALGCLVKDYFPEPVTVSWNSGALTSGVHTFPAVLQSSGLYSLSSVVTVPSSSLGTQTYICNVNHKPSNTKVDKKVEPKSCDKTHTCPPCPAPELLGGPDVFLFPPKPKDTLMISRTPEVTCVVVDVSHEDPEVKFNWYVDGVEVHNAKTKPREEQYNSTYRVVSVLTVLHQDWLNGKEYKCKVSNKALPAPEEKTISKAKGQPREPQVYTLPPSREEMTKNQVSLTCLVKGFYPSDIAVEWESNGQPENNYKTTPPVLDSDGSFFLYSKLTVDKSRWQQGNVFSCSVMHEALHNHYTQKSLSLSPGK
light: DIVMTQSPLSLPVTLGQPASISCRSSKSLLHSNGKIYLYWFQQRPGQSPRLLIYRMSNLASGVPDRFSGSGSGTDFTLKISRVEAEDVGVYYCMQHLEYPLTFGQGTKLEIKRTVAAPSVFIFPPSDEQLKSGTASVVCLLNNFYPREAKVQWKVDNALQSGNSQESVTEQDSKDSTYSLSSTLTLSKADYEKHKVYACEVTHQGLSSPVTKSFNRGEC
notes: as for B1
For the molecule B5, the values for the EC50 in the assay with human CCR8 [1] and with cynomolgus monkey CCR8 were 0.85 nM and 6.21 nM, respectively.

B6: PR004527 (antibody, human IgG1, kappa, V domains shown)
VH: EVQLVESGGGLVQPGGSLKLSCAASGFTFNTYAMNWVRQASGKGLEWVGRIRSKSNNYATYYADSVKDRFTISRDDSKSTLYLQMNSLKTEDTAVYYCVRGKENGNYYAMDFWGQGTTVTVSS
VL: DIVMTQSPLSLPVTLGQPASISCRSSKSLLHSNGKIYLYWFQQRPGQSPRLLIYRMSNLASGVPDRFSGSGSGTDFTLKISRVEAEDVGVYYCMQHLEYPLTFGQGTKLEIKR
notes: as for B1
For B6, the 50% effective concentration (EC50) in the assay with human CCR8 [1] was 0.73 nM; with cynomolgus monkey CCR8, 7.33 nM.

B7: PR004664 (antibody, human IgG1, kappa, V domains shown)
VH: EVQLVESGGGLVKPGGSLRLSCAASGFTFSTYAMNWVRQAPGKGLEWVGRIRSKSNNYATYYADSVKDRFTISRDDSKSTLYLQMNSLKTEDTAVYYCVRGKENANYYAMDFWGQGTTVTVSS
VL: DIVMTQSPLSLPVTLGQPASISCRSSKSLLHSNGKIYLYWFQQRPGQSPRLLIYRMSNLASGVPDRFSGSGSGTDFTLKISRVEAEDVGVYYCMQHLEYPLTFGQGTKLEIKR
notes: as for B2
The molecule B7 registered an EC50 in the assay with human CCR8 [2] of 0.365 nM.

B8: PR004661 (antibody, human IgG1, kappa, V domains shown)
VH: EVQLVESGGGLVQPGGSLRLSCAASGFTFSTYAMNWVRQAPGKGLEWVSRIRSKSNNYATYYADSVKDRFTISRDDSKSTLYLQMNSLRAEDTAVYYCVRGKEQGNYYAMDFWGQGTTVTVSS
VL: DIVMTQSPLSLPVTPGEPASISCRSSKSLLHSNGKIYLYWFLQKPGQSPQLLIYRMSNLASGVPDRFSGSGSGTDFTLKISRVEAEDVGVYYCMQHLEYPLTFGQGTKLEIKR
notes: as for B2
In turn, B8 displayed an EC50 in the assay with human CCR8 [2] of 0.456 nM.

B9: PR004526 (antibody, human IgG1, kappa, V domains shown)
VH: EVQLVESGGGLVQPGGSLRLSCAASGFTFNTYAMNWVRQAPGKGLEWVSRIRSKSNNYATYYADSVKDRFTISRDDSKSTLYLQMNSLRAEDTAVYYCVRGKENGNYYAMDFWGQGTTVTVSS
VL: DIVMTQSPLSLPVTLGQPASISCRSSKSLLHSNGKIYLYWFQQRPGQSPRLLIYRMSNLASGVPDRFSGSGSGTDFTLKISRVEAEDVGVYYCMQHLEYPLTFGQGTKLEIKR
notes: as for B1
B9: the figures for the EC50 with human CCR8 [1] and in the assay with cynomolgus monkey CCR8 were 1.03 nM and 4.01 nM, respectively.

B10: PR004662 (antibody, human IgG1, kappa, V domains shown)
VH: EVQLVESGGGLVQPGGSLRLSCAASGFTFSTYAMNWVRQAPGKGLEWVSRIRSKSNNYATYYADSVKDRFTISRDDSKSTLYLQMNSLRAEDTAVYYCVRGKENANYYAMDFWGQGTTVTVSS
VL: DIVMTQSPLSLPVTPGEPASISCRSSKSLLHSNAKIYLYWFLQKPGQSPQLLIYRMSNLASGVPDRFSGSGSGTDFTLKISRVEAEDVGVYYCMQHLEYPLTFGQGTKLEIKR
notes: as for B2
Consider B10, for which, in the assay with human CCR8 [2], the 50% effective concentration (EC50) stood at 0.681 nM.

B11: PR004523 (antibody, human IgG1, kappa, V domains shown)
VH: EVQLVESGGGLVQPGGSLRLSCAASGFTFNTYAMNWVRQAPGKGLEWVSRIRSKSNNYATYYADSVKDRFTISRDDSKSTLYLQMNSLRAEDTAVYYCVRGKENGNYYAMDFWGQGTTVTVSS
VL: DIVMTQSPLSLPVTPGEPASISCRSSKSLLHSNGNTYLYWFLQKPGQSPQLLIYRMSNLASGVPDRFSGSGSGTDFTLKISRVEAEDVGVYYCMQHLEYPLTFGQGTKLEIKR
notes: as for B1
Consider B11, for which the EC50 was determined as 1 nM with human CCR8 [1] and 4.42 nM with cynomolgus monkey CCR8.

B12: PR004660 (antibody, human IgG1, kappa, V domains shown)
VH: EVQLVESGGGLVQPGGSLRLSCAASGFTFSTYAMNWVRQAPGKGLEWVSRIRSKSNNYATYYADSVKDRFTISRDDSKSTLYLQMNSLRAEDTAVYYCVRGKENANYYAMDFWGQGTTVTVSS
VL: DIVMTQSPLSLPVTPGEPASISCRSSKSLLHSNGKIYLYWFLQKPGQSPQLLIYRMSNLASGVPDRFSGSGSGTDFTLKISRVEAEDVGVYYCMQHLEYPLTFGQGTKLEIKR
notes: as for B2
With B12, the response with human CCR8 [2] was half-maximal at 0.49 nM (EC50).

B13: PR004667 (antibody, human IgG1, kappa, V domains shown)
VH: EVQLVESGGGLVKPGGSLRLSCAASGFTFSTYAMNWVRQAPGKGLEWVGRIRSKSNNYATYYADSVKDRFTISRDDSKSTLYLQMNSLKTEDTAVYYCVRGKEQGNYYAMDFWGQGTTVTVSS
VL: DIVMTQSPLSLPVTLGQPASISCRSSKSLLHSNAKIYLYWFQQRPGQSPRLLIYRMSNLASGVPDRFSGSGSGTDFTLKISRVEAEDVGVYYCMQHLEYPLTFGQGTKLEIKR
notes: as for B2
In the assay with human CCR8 [2], B13 registered an EC50 of 0.279 nM.

B14: PR004522 (antibody, human IgG1, kappa, V domains shown)
VH: EVQLVESGGGLVKPGGSLRLSCAASGFTFNTYAMNWVRQAPGKGLEWVGRIRSKSNNYATYYADSVKDRFTISRDDSKSTLYLQMNSLKTEDTAVYYCVRGKENGNYYAMDFWGQGTTVTVSS
VL: DIVMTQSPLSLPVTPGEPASISCRSSKSLLHSNGNTYLYWFLQKPGQSPQLLIYRMSNLASGVPDRFSGSGSGTDFTLKISRVEAEDVGVYYCMQHLEYPLTFGQGTKLEIKR
notes: as for B1
For the molecule B14, the concentration for a half-maximal effect (EC50) in the assay with human CCR8 [1] worked out at 1.08 nM; with cynomolgus monkey CCR8, 5.87 nM.
